# Measurements published in article PMC12775136, “Mechanistic insights into recruitment and regulation of the RNA helicase UPF1 in replication-dependent histone mRNA decay”.
# T1: UPF1-CHh (human, UniProt Q92900-2 115-914)
# T1 sequence: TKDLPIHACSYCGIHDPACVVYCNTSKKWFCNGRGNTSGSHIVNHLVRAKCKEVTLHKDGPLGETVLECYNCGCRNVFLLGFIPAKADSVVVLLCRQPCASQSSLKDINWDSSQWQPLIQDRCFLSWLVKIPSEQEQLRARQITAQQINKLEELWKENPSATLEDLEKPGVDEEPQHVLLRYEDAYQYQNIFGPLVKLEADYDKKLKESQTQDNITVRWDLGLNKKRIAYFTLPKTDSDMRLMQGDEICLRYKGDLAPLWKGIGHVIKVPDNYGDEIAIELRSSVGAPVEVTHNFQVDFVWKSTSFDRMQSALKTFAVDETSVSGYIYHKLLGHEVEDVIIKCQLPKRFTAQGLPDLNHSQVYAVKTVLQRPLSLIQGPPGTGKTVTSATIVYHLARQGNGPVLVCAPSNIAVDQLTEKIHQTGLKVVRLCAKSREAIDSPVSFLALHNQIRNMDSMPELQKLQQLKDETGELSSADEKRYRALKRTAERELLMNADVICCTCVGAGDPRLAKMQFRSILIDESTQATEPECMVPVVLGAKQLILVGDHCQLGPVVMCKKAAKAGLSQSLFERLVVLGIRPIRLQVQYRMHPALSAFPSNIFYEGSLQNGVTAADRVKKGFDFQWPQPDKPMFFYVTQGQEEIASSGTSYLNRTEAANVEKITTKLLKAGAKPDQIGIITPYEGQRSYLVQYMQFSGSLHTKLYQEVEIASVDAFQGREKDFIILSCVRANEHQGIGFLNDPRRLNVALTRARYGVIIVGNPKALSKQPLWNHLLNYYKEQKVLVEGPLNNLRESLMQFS
# T2: 3'hExofl (ERI1) (human, UniProt Q8IV48 1-349)
# T2 sequence: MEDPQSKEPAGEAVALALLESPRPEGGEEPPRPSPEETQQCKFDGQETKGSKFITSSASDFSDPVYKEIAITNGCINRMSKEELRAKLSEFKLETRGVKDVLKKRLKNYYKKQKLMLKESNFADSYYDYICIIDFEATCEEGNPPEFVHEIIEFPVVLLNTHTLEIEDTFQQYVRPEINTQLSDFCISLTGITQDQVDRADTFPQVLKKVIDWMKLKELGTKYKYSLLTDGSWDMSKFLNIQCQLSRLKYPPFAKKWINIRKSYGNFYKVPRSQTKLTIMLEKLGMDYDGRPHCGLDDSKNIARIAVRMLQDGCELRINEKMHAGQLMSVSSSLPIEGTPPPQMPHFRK
# Experiments:
# UPF1-CHh = target: T1, UPF1-CHh; test: cryoEM structure (3.6 A); no ATP; Zn2+; Fluorescence anisotropy: 20 mM HEPES pH 7.5, 100 mM NaCl, 0.5 mM EDTA, 100 ug/ml BSA; 30 min at room temperature, read at 25 C; one-site fit with Hill slope, n=3; details: protein: recombinant; tags: 6xHis; hairpin with 5' single-stranded U12 extension
# UPF1-Hel;SLBP-N [1] = target: T3, UPF1-Hel;SLBP-N (human;human, UniProt Q92900-2;Q14493 295-914;1-198, |); test: preparative SEC; ternary complex reconstituted for crosslinking MS; Fluorescence anisotropy: 20 mM HEPES pH 7.5, 100 mM NaCl, 0.5 mM EDTA, 100 ug/ml BSA; 30 min at room temperature, read at 25 C; one-site fit with Hill slope, n=3; details: protein: recombinant;recombinant; tags: 6xHis;6xHis-TEV; copies: 1;1; hairpin with 5' single-stranded U12 extension
# UPF1-Hel;SLBP-N [2] = target: T3, UPF1-Hel;SLBP-N; test: analytical SEC; stable UPF1-SLBP complex only with SL26; Fluorescence anisotropy: 20 mM HEPES pH 7.5, 100 mM NaCl, 0.5 mM EDTA, 100 ug/ml BSA; 30 min at room temperature, read at 25 C; one-site fit with Hill slope, n=3; details: protein: recombinant;recombinant; tags: 6xHis;6xHis-TEV; copies: 1;1; hairpin, 6 bp stem, 4 nt loop
# SLBPfl = SLBPfl (human, UniProt Q14493 1-270); test: fluorescence anisotropy; 0.5 mM EDTA; Fluorescence anisotropy: 20 mM HEPES pH 7.5, 100 mM NaCl, 0.5 mM EDTA, 100 ug/ml BSA; 30 min at room temperature, read at 25 C; one-site fit with Hill slope, n=3; details: protein: recombinant, tags: 6xHis-TEV (N-terminal), label: 5' 6-FAM
# 3'hExofl (ERI1) [3] = target: T2, 3'hExofl (ERI1); test: fluorescence anisotropy; 0.5 mM EDTA, no Mg2+; affinity comparable to SL26 and SL24; Kd shown only in figure; Fluorescence anisotropy: 20 mM HEPES pH 7.5, 100 mM NaCl, 0.5 mM EDTA, 100 ug/ml BSA; 30 min at room temperature, read at 25 C; one-site fit with Hill slope, n=3; details: protein: recombinant; tags: 6xHis, HRV-3C site (N-terminal); label: 5' 6-FAM; partial hairpin; 3' arm lacks last 2 stem nt
# 3'hExofl (ERI1) [4] = target: T2, 3'hExofl (ERI1); test: fluorescence anisotropy; 0.5 mM EDTA, no Mg2+; Kd shown only in figure; Fluorescence anisotropy: 20 mM HEPES pH 7.5, 100 mM NaCl, 0.5 mM EDTA, 100 ug/ml BSA; 30 min at room temperature, read at 25 C; one-site fit with Hill slope, n=3; details: protein: recombinant, tags: 6xHis, HRV-3C site (N-terminal), label: 5' 6-FAM, hairpin
binder,measurement,setting,value
UUUUUUUUUUUUCCAAAGGCUCUUUUCAGAGCCACCCA (structured_RNA) [U-SL (12U-26SL)],binding result,UPF1-CHh,binds
same,binding result,UPF1-Hel;SLBP-N [1],binds
CCAAAGGCUCUUUUCAGAGCCACCCA (structured_RNA) [SL26 RNA (SEC)],binding result,UPF1-Hel;SLBP-N [2],binds
CCAAAGGCUCUUUUCAGAG (structured_RNA) [6-FAM-SL19],Kd,"SLBPfl; partial hairpin, 3' arm lacks last 2 stem nt",~500 nM
same,binding result,3'hExofl (ERI1) [3],binds
CCAAAGGCUCUUUUCAGAGCCACU (structured_RNA) [6-FAM-SL24],Kd,"SLBPfl; hairpin, intact 6 bp stem",~7 nM
same,binding result,3'hExofl (ERI1) [4]; intact 6 bp stem,binds
CCAAAGGCUCUUUUCAGAGCCACCCA (structured_RNA) [6-FAM-SL26],Kd,"SLBPfl; hairpin, 6 bp stem, 4 nt loop",~6 nM
same,binding result,"3'hExofl (ERI1) [4]; 6 bp stem, 4 nt loop",binds
